Where “and” joins values, the source holds several entries; their conditions need not be identical. Identical values can stand only once.
How the values were obtained:
platelet aggregation = assay: Platelet function and blood hemostasis; format: cell-based
[1] = 26-week chronic toxicity study
[2] = Plasma concentrations in solid organ transplantation patients; format: in vivo, human
Procedure: Without wishing to be bound by theory, the inventors have identified that sustained plasma concentrations at least about 40 μg/mL of the CFZ533 antibody was necessary to block the CD40-CD40L pathway in target tissues in solid organ transplantation patients. Thus, with a dosing regimen providing, throughout the entire treatment period, sustained plasma concentrations of at least 40 μg/mL and up to 400 μg/mL, in situations where CD40 expression in affected tissues would be enhanced (severity of the condition, activation of the immune system post transplantation), is considered for a therapeutic effect.

[3] = tested on: human whole blood, PBMCs, monocyte-derived DCs, HUVECs; assay: Stimulatory potential in vitro (proliferation, CD69, cytokines); format: cell-based
Procedure: The ability of CFZ533 to stimulate activation of human leukocytes was assessed using proliferation and upregulation of the activation molecule CD69 on B cells in whole blood. […] Human whole blood from multiple donors (n=13) were incubated with a dose titration of CFZ533, and proliferation (^3H-TdR) was assessed after three days of culture. ii. Human PBMCs from multiple donors (n=26) were incubated with a dose titration of CFZ533, and proliferation (^3H-TdR) was assessed after three days of culture. For both graphs, data is presented as mean and SD of normalized cpm as a function of log-transformed CFZ533 concentration (rCD154+IL-4=100; dotted lines, cells plus media=0; dashed lines). […] Human PBMCs were stimulated for 3 days with a dose titration of CFZ533 in the presence of IL-4 (i) or anti-IgM F(ab′)2. (ii). The mean and SD of 3H-TdR (cpm) is shown as a function of log-transformed CFZ533 concentration. In FIG. 6C it is shown how human whole blood (41 donors) was cultured overnight with no stimuli, CFZ533, isotype control or rCD154 and CD69 expression on B cells was assessed by FACS. Each dot represents data from a single donor with mean % CD69 values indicated by a horizontal red line.

recombinant human CD40 = recombinant human CD40 (Homo sapiens, UniProt P25942); assay: Surface plasmon resonance analysis of affinity for CD40; format: binding
Procedure: The binding analyses of recombinant CFZ533 were performed at 25° C. with HBS−EP+ as running buffer. A typical binding analysis cycle consisted of three steps: (i) capture of the antibody via ProteinA immobilized on the chip surface, (ii) binding of CD40 antigen to the captured anti-CD40 antibody, and (iii) regeneration of the ProteinA surface. To determine the kinetic rate constants of the antigen-antibody binding interactions, binding data were processed, double referenced with responses from blank injections. The binding curves were fitted locally using the 1:1 interaction model of the Biacore T100 Evaluation software to determine kinetic rate constants. The value for the equilibrium dissociation constant (KD) was calculated as the ratio of the rate constants kd/ka. All binding measurements were performed in two independent experiments.

[4] = tested on: T cell-dependent antibody responses (TDAR); assay: Recall T cell-dependent antibody response to KLH; format: in vivo, rhesus monkeys; details: at second KLH immunization, single 10 mg/kg i.v.
Procedure: Monkeys were immunized with KLH three times (the first was about 3 weeks prior to dosing, the second was 2 weeks after mAb1 administration, and the third was after complete wash-out of mAb1). […] Once mAb1 was cleared, all animals mounted a full memory antibody response to the third KLH.
In the PK study, CFZ533 was administered to three animals at calculated single doses of 16.2 (5532), 18.5 (5531) and 20 (5530) mg/kg. Blood was sampled for analyses of CFZ533 serum concentrations, numbers of peripheral T and B lymphocytes, and CD40 occupancy on peripheral B cells by CFZ533. For recall TDAR experiments, animals were immunized with keyhole limpet hemocyanin (KLH) in Alum on study days 8 (priming) and 43 (recall; during CFZ533 treatment) respectively. Serum was sampled one day before and 7, 14 and 21 days after priming and recall immunizations. KLH specific IgM/IgG titers were determined with sandwich ELISA using cynomolgus monkey anti-KLH IgM/IgG reference serum as standard. PK assessment was performed as described above. See supplementary material for additional details on the PK and TDAR experiments.
Arrows below the x-axis highlight primary and secondary KLH immunizations. The timing of a single dose of 10 mg/kg CFZ533 is shown above. The asterisks indicate time points at which anti-KLH IgG and/or CFZ533 levels were measured. FIG. 10B. […]

Sequence of recombinant human CD40 (P25942 21-277): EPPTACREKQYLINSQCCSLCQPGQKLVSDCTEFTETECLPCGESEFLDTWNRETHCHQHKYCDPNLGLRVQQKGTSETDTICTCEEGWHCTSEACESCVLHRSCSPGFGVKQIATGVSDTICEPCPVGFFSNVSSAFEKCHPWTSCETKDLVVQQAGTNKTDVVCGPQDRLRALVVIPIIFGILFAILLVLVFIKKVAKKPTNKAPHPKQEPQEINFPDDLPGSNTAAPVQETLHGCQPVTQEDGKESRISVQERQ

## CFZ533: human anti-CD40 IgG1 monoclonal antibody with Fc-silencing N297A mutation; heavy chain SEQ ID NO: 9, light chain SEQ ID NO: 10
Platelet aggregation
  Platelet aggregation responses: does not induce platelet aggregation responses
[1]; 1 mg/kg/week subcutaneously, 26 weeks
  serum concentration with incomplete or no suppression of GCs: below 20 μg/mL
[1]; 26-week, cynomolgus monkeys
  NOAEL: 150 mg/kg
[1]; proposed intravenous regimen
  Cmax,ss at NOAEL versus expected human Cmax: 24 fold
[2]; about 400 μg/ml at steady state
  Safety and tolerability at maximum plasma concentration: generally safe and well tolerated
[2]; human, in vivo
  Thromboembolic events: No thromboembolic events were observed
  observed maximum plasma concentration at steady state: about 400 μg/ml
[2]; solid organ transplantation patients
  sustained plasma concentration necessary to block the CD40-CD40L pathway in target tissues: at least 40 μg/mL
[3]; human whole blood (1:10 dilution) or PBMCs, three days
  Induction of thymidine incorporation (proliferation): unable to induce thymidine incorporation
[3]; human whole blood, overnight
  Induction of CD69 upregulation on B cells: unable to induce upregulation of CD69
[3]; monocyte-derived DCs or HUVECs
  Induction of cytokine production: unable to induce cytokine production
Recombinant human CD40; SPR, 25° C.
  ka [1/Ms]: 3.13 ± 0.73 × 10^5 1/Ms
  kd [1/s]: 0.93 ± 0.14 × 10^−4 1/s
Recombinant human CD40; surface plasmon resonance
  Kd: 0.3 nM
[4]; 10 mg/kg
  CFZ533 concentration required for complete suppression of recall TDAR: > 40 µg/mL and 30 to 40 µg/mL
[4]; listed as mAb1, 10 mg/kg
  CFZ533 concentration required for complete suppression of recall TDAR: > 40 µg/mL

Reference: patent US11780927B2, “Anti-CD40 antibodies for use in prevention of graft rejection” (NOVARTIS AG, priority 2018, dated 2023)
